Test results as given in the supplement of paper PMC9170038.

Tested on: MS2 coat protein
Assay: apparent KD of MS2 coat protein; designed switch direction (-1 OFF switch, 1 ON switch): -1; higher = weaker reporter binding
Outline: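 Designed RNA switches were transcribed on Illumina chips by stalled E. coli RNA polymerase and titrated with SNAP-549-labelled MS2 coat protein from 0.7 or 1.5 nM, doubling to 3 µM. Step length ran from 0.8–1.5 h at the lowest concentration to 10–20 min at the highest. The apparent KD is the median over clusters for each design, from curve-fitted normalised cluster fluorescence.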

[1] = Eterna round: R95, input ligand: microRNA oligo, concentration not stated
[2] = Eterna round: R95, input ligand: FMN 200 uM
[3] = Eterna round: R95, input ligand: none
[4] = input ligand: microRNA oligo, concentration not stated

Sequence | apparent KD of MS2 coat protein (input ligand: FMN 200 uM) [nM] | apparent KD of MS2 coat protein (input ligand: none) [nM] | apparent KD of MS2 coat protein [1] [nM] | apparent KD of MS2 coat protein [2] [nM] | apparent KD of MS2 coat protein [3] [nM] | apparent KD of MS2 coat protein [4] [nM]
AAACCCUGAGGAUAUAGAUAACAACAAAGCCUCACGUGCCAACAUGAGGAUCACCCAUGUAGAAGGCAGGCCAA [Mod R3 Insanara 4 - Jieux - Exclusion 2] (Eterna round: R97, puzzle: Exclusion 2) | 14.7 | 17.2 | – | – | – | –
GUCAUCACACAUGGGAUCAACAUGAGGAUCACCCAUGUUGCCAAGUUUUUUGCACGUCUUAUAAUACGUUUGAUGAG [Mod-Jxe] (Eterna round: R97, puzzle: Sensor, turn-off variant 1) | 31.7 | 29.9 | – | – | – | –
GGGCCCGGUGUGAGGAUAUUUGAAGUGAAAGCUUCGGAGAAGGCACAUGAGGAUCACCCAUGUAAGCCGGGCCC [-35.9, -33.8 kcal, A 26%, 3bis-0] (Eterna round: R97, puzzle: Brourd's mod of Exclusion 4) | 16.1 | 13.4 | – | – | – | –
CUCGGACAUGAGGAUCACCCAUGUGAGGAUAUGGUGCUAUCGUCAUUAGACGAUUGCGUUAGAAGGCACAAAUG [LRO-Excl1-28] (puzzle: Exclusion 1) | – | – | 35.2 | – | – | –
GAAAAGGUAGGAUAUGCGAAAAAAAAGGGUAGAAAAAAAACACAUGAGGAUCACCCAUGUAGAAGGACCAAAAG [salish99_ex2_r3_031] (puzzle: Exclusion 2) | – | – | 31.2 | 26.1 | 32 | –
AAGACGCGUGUAAGGAUAUCGAAAGCCCGAGGCGACGAGAAGGUACAUGAGGAUCACCCAUGUGCAGAUCACAA [BmEX4 B.3] (Eterna round: R97, puzzle: Brourd's mod of Exclusion 4) | 18.9 | 17.3 | – | – | – | –
AGUAGAUCUACGCUUGCGUGGAUCUGCUAUGCAGGUGUUACAUGAGGAUCACCCAUGUCCUCAUUUGUUCGUCUUAU [JL turnoff v2 99.15] (puzzle: Sensor v3, turn-off variant 2) | – | – | 111 | 135 | 185 | –
UAGGAGCAAGGAUAUACGAGGAUAUGGUAGUUUGUAGAGUGACAUGAGGAUCACCCAUGUAGAAGGUGCGUGUG [JR_Exclu2_Sub0100] (puzzle: Exclusion 2) | – | – | 82.9 | – | – | –
CAAAAGGUAGGAUAUACGAAAAAAAAGGGUAGAAAAAAAACACAUGAGGAUCACCCAUGUAGAAGGACCAAAAU [salish99_ex2_r3_054] (puzzle: Exclusion 2) | – | – | 24.3 | 90.9 | 22.5 | –
GUGCUAUGAGGAUAUACGUUGGUGGGCAUCUGUGUGCUCCUACAUGAGGAUCACCCAUGUAGAAGGCAUGUCAC [LRO-Excl2-20] (Eterna round: R96, puzzle: Exclusion 2) | 22.9 | 14.1 | – | – | – | 9.33
GGCGCACAUGAGGAUCACCCAUGUGAGGAUAUUAGGCGAUCGUCGAAAGACGAUAGCCUGAGAAGGCACAUGCC [Eli x1 4.19] (Eterna round: R97, puzzle: Exclusion 1) | 154 | 33.1 | – | – | – | –
AGCUGACAAGGAUAUACAUGAGGAUCACCCAUGUUGGUCAAGCGACGAUAGUCGCAAUGUAGAAGGUGUCAGCU [E3/8-C1] (Eterna round: R97, puzzle: Exclusion 3) | 1750 | 341 | – | – | – | –
UCUCGCUGGCGAGGAUAUCCUGUGCGGUUCCGGCUCGUGUCUGUUACAUGAGGAUCACCCAUGUGGGAGAAGGUGCCUGUGGCU [Design 94] (Eterna round: R96, puzzle: Exclusion NG 2) | – | – | – | – | – | 22
UAAUAACAAGCGAGAUCCUACAUGAGGAUCACCCAUGUGCUCGUCUUAUAAAGUACUAUCACGAAAGUGAUAGUACA [Mat - Sensor v3 - turn-off var 1 - Eli Mod - D61] (puzzle: Sensor v3, turn-off variant 1) | – | – | 49.5 | 17.1 | 19.2 | –
UAGUACCAAGGAUAUGCGUGACCAUGGCCUCCGUGGUAGAGACAUGAGGAUCACCCAUGUAGAAGGUGGAUAAC [Eternabot (L1) Solution 74] (Eterna round: R97, puzzle: Exclusion 2) | 401 | 335 | – | – | – | –
GGUCUGCGAGGAUAUACAUGAGGAUCACCCAUGUGAGUGAUACUAGUGAGGUCGAUUGGUAGAAGGCGCGGACG [JL-ex3-2.05 salish99 mod] (puzzle: Exclusion 3) | – | – | 445 | 37 | 839 | –
CUAAAUCAUGUAGGAUAUGCGUGGCAAAGCUAUGCAGAAGGACAUGAGGAUCACCCAUGUCAUUCCGUCUGGGAACAGACGGGA [Mat - Exclusion NG 1 - Mod of JL - D52] (Eterna round: R96, puzzle: Exclusion NG 1) | 158 | 24.5 | – | – | – | 17.5

Sequence | apparent KD of MS2 coat protein (input ligand: FMN 200 uM) [nM] | apparent KD of MS2 coat protein (input ligand: none) [nM] | apparent KD of MS2 coat protein [1] [nM] | apparent KD of MS2 coat protein [2] [nM] | apparent KD of MS2 coat protein [3] [nM] | apparent KD of MS2 coat protein [4] [nM]
GACGAGUGAGGAUAUGGUGAGUAGUGCCUGAGCGCUGCUCACCAGAAGGCACAUGAGGAUCACCCAUGUAUGUC [Mat - Exclusion 4 - Mod of JL - D11] (puzzle: Exclusion 4) | – | – | 13.2 | – | – | –
GUGAGCAGACGGAGAUCCAACAUGAGGAUCACCCAUGUCUCAUAAGCUUUUUGCUCAUCUUAUUGUACCUUGGUGCU [Mat - Sensor v3 - turn-off var 1 - JL Mod - D20] (puzzle: Sensor v3, turn-off variant 1) | – | – | 8.27 | 291 | 253 | –
GGCAUGCAAGGAUAUACUUACAGUGAUGUUCGAAUAAGUCUACUUGAGGAUCACCCAAGUAGAAGGUGCAUGCC [Exclusion 2 (Mod3.1 JL EX2 4.74 Vienna UCT mod of Mamaed)] (Eterna round: R97, puzzle: Exclusion 2) | 62.8 | 16 | – | – | – | –
UCGUUCCGUGUAGGAUAUUGGCCUUCUCUGGGCCGAGAAGGACAUGAGGAUCACCCAUGUAUGUUAUUAUCGCGCGUGGCGCAU [Design 85] (Eterna round: R96, puzzle: Exclusion NG 1) | – | – | – | – | – | 24.7
GGUAGAGUGGUAGGAUAUCCGUCUGUUUCAGUCGGAGAAGGACCACAGUCACUGGGUCCAAAUAUGGGUGACCAUGUAUCUACC [pwkr exNG1 F6.3] (Eterna round: R96, puzzle: Exclusion NG 1) | 622 | 392 | – | – | – | 358
UGCUAGUCAGGAUAUACGAACAUGUCAAAAGACGUGAAGGGACAUGAGGAUCACCCAUGUAGAAGGGACUAGCU [salish99_ex2_r3_006] (puzzle: Exclusion 2) | – | – | 25.2 | 165 | 27.1 | –
UACAUGAGGAUCACCCAUGUUUUGUCGUGUAUGGUAUUUAUCUAGGAUAUCAAUCUAUUUAUGUAUGAGAAGGAGAAUAUUAAU [JMF's solution 55] (Eterna round: R96, puzzle: Exclusion NG 3) | 42.3 | 41.1 | – | – | – | 28.9
GUGUUGUCAGGAUAUCUUACAUAACAAUCGUUGUUACCAUUGGAGAAGGGACAUGAGGAUCACCCAUGUUAACC [tap-tap-tappy46] (Eterna round: R97, puzzle: Exclusion 4) | 18.9 | 19.6 | – | – | – | –
GGUACUAACACGAAAGUGUUAGUACUAUAGGUUUGUGUUACAUGAGGAUCACCCAUGUCCUCAUAAGCUCGUCUUGU [JL-sv3-2.21 mat747 mod] (puzzle: Sensor v3, turn-off variant 2) | – | – | 170 | 455 | 403 | –
GCUUGUGUUGAGGAUAUGCGCCGGCUCGCUGGCGCAGAAGGCGGCACAUGAGGAUCACCCAUGUCAGUUCGCGG [salish99_ex6_r004_009] (Eterna round: R97, puzzle: Exclusion 6) | 321 | 93.8 | – | – | – | –
GGCAAACAUGAGGAUCACCCAUGUCAGGAUAUUAGGCGAUCGUCGAAAGACGAUAGCCUGAGAAGGGACAUGCC [Eli x1 4.16] (Eterna round: R97, puzzle: Exclusion 1) | 238 | 103 | – | – | – | –
UUAUAGAGAGGAUAUAUAAUGUGAAACAUGAGGAUCACCCAUGUAAUAUUAUGGAUGUAAAUAGAAGGCUCAAUUU [Mat - Exclusion 5 - JL mod - D14] (puzzle: Exclusion 5) | – | – | 30.6 | 29.3 | 32.4 | –
CUAGAUCUUCGGAUCUAGGACAUGAGGAUCACCCAUGUCACGAGCAGAUCUUCAUGCAAGCUUUUUGCUCGUCUUAU [Sensor v3 - Turn-off variant 1 - 37] (puzzle: Sensor v3, turn-off variant 1) | – | – | 409 | 27.3 | 33.4 | –
AGUUGGCGAGGAUAUACAUGAGGAUCACCCAUGUGAGAGAUACGAGUGAGGUCGAUUAGUAGAAGGCGCUGACA [Mat X3R4 m14] (Eterna round: R97, puzzle: Exclusion 3) | 984 | 161 | – | – | – | –
CCGAUAAUGUAGGAUAUCGUAUCGGAAACGAUACGAGAAGGGCAAACAUGAGGAUCACCCAUGUUCCUUAACGG [Mat - Exclusion 6 - Eli Mod - D72] (puzzle: Exclusion 6) | – | – | 15.8 | – | – | –
GUAAUUAAUGUAGGAUAUGCAAGGCGAACCUAAGCAGAAGGACAUGAGGAUCACCCAUGUAUUGCGGUCUGCGUUCUGAUCGCU [salish99_ExNG1_r4_010] (Eterna round: R96, puzzle: Exclusion NG 1) | 19.1 | 17 | – | – | – | 8.25
